Here are results for one substance from patent US20210322547A1.

Experiment [1] has as its target Recombinant human GM-CSF (expression source not stated) (human) (UniProt P04141). Briefly: competition ELISA; plate coated with 50 ng/well recombinant GM-CSF; unlabeled antibody titrated together with 50 nM biotinylated Ab2; competition for 1 hr; neutravidin-HRP detection, A450. In general terms: In an ELISA, binding on a coated surface is turned into a signal by an enzyme label.

Experiment [2] shares this target. The experiment in a line: competition ELISA; plate coated with 50 ng/well recombinant GM-CSF; unlabeled antibody titrated together with 50 nM biotinylated Ab2; competition for 18 hrs; neutravidin-HRP detection, A450.

Sequence of UniProt P04141 (P04141 18-144 limits assumed): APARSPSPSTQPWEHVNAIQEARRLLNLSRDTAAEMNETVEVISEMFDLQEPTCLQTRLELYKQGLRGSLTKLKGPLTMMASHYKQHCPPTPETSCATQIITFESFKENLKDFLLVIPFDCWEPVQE

Regarding “Ab2, chimeric IgG1k antibody having variable regions from the mouse antibody LMM102”, the IC50 – broadly, the concentration at which inhibition is half-maximal – was 122 nM in experiment [1] and 94 nM in experiment [2].
